Data: the supplement of paper PMC12764529
± gives the half width of the 95% confidence interval.

How the values were obtained:
[1] = folding stability dG unfold (combined trypsin and chymotrypsin); higher = more stable
How it was run: (§1)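 Sequencing followed digestion of designed mini-proteins with trypsin and chymotrypsin, each at 11 concentrations in threefold dilutions together with a no-protease condition. The mini-proteins were under 80 residues, had no cysteine, sat in a PA-tagged cDNA display construct, and were kept only if AlphaFold2 dimer inter-PAE was above 15. From the counts, Bayesian fitting gave K50, and unfolding free energy was derived against a sequence-predicted unfolded-state K50 and a shared folded-state K50, per protease or combined.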

[2] = folding stability dG unfold from chymotrypsin proteolysis; higher = more stable
How it was run: as §1

[3] = folding stability dG unfold from trypsin proteolysis; higher = more stable
How it was run: as §1

Sequence | folding stability dG unfold [1] [kcal/mol] | folding stability dG unfold [2] [kcal/mol] | folding stability dG unfold [3] [kcal/mol]
SAGGSAGGGMVKREIKVTVTRLPESDVWLVTVTTKIGDKWEIIPVPVAAPADLSAEELAKEVLESAGGSAGG [r6_21_JUSTAS] | 0.939 ± 0.11 | 0.751 ± 0.087 | 1.09 ± 0.036
SAGKKLLVVVEIRVFDKDGKLVREERLVIEVPEEDEEALRRLLEEARRLAEALLPPGARVEIRVRVLPPSAG [r5_793_TrROS_Hall] | 3.6 ± 0.15 | 3.82 ± 0.11 | 2.98 ± 0.13
SAAKKVVTVPLPFLAPENSITPEELVALAVAAFEKLFPGAKIEKFEFNMPVFRLPGDGVIVVVEITDTSSAG [r14_145_TrMRF] | 2.32 ± 0.088 | 2.411 ± 0.024 | 2.04 ± 0.041
SMKIEKKDGKYVLTIKIKADSVEEVLNALKKLGIKFPPGVKEIKVVKVEEVNGEVYITIVVDTEEALKALSA [r9_820_TrROS_Hall] | 2.6 ± 0.28 | 2.34 ± 0.09 | 2.93 ± 0.13
SAGGSAGGSAGTSIKEAKIKLPSNGKTYKAIVTTHPNGKKYVYIPETGKVYELNNLIIEPSAGGSAGGSAGG [r11_301_TrMRF] | 2.02 ± 0.059 | 2.32 ± 0.055 | 1.4 ± 0.047
SAGGMTITFPEGITITFSPDNTATVTINFPGNPLTLTLNATTLEEVIETAKKAAEEFRKPPPKLVLKVSAGG [r13_896_JUSTAS] | 1.6 ± 0.096 | 1.72 ± 0.1 | 1.13 ± 0.035
SAGGDEIVDRIKQAFHNFGYPVRIDDISPPNGKIYIRISPAMRENMKPAIIEIPFPGIKDITIEMWPSAGGS [r8_318_TrROS] | 1.53 ± 0.17 | 1.49 ± 0.14 | 1.25 ± 0.14
SAGGSAGGSAGMIKKVKISRTSDGTVTRTTEYLETDKPGVPKVVTTEVETVTLAPSEPLFSAGGSAGGSAGG [r11_517_JUSTAS] | 0.507 ± 0.084 | 0.911 ± 0.039 | -1.11 ± 0.51
SAGGKKEKKLTLLFSDPNGKLSLVIEVYKKKDGSYWAVFYNPETGKKEEYKFKSLEELEEAVKELLKKSAGG [r13_857_TrMRF] | 4.27 ± 0.077 | 4.579 ± 0.045 | 2.8 ± 0.048
SAGGSAMFMFELTIPPNAKIPPGYKLKIRFPNGKEEEYKFNNGPIKIWFYMDPDGNIQLDLEVEKKSAGGSA [r15_992_TrROS] | 4.35 ± 0.15 | 4.9 ± 0.14 | 2.97 ± 0.09
SAGGSAGGSKKIMIPGSPDTAFSTIKEWIRNGHEVPIYYYSPGNPEPVAEQEITIDEEENDELSAGGSAGGS [r12_241_TrROS] | -0.309 ± 0.2 | -0.183 ± 0.21 | -0.683 ± 0.3
SAMTPEEIKKKVEELLKELAKELNAEVTSVKVDKETKTITVTVKVKLPNGETKTLTLKFTIDKDGKITFSAG [r14_183_TrROS_Hall] | 4.32 ± 0.14 | 4.5 ± 0.079 | 3.67 ± 0.12
SAGGSAGGSEEEVEIKVVEPVDVVVLPDGTVRRTFRVEDGALLVITVHFPPDGNPVGEIEIFPSAGGSAGGS [r20_240_TrMRF] | 1.68 ± 0.16 | 1.64 ± 0.04 | 1.56 ± 0.032
SAGGSAMKEGKPAVEVEVTVLIELSAEEIAKLLGKEIKEGDTVLITVKVRVYPDGSVEIEIRVEKLSAGGSA [r15_91_TrROS_Hall] | 3.08 ± 0.17 | 3.19 ± 0.17 | 2.87 ± 0.15
SAGGGAMHTVTITDEAGNVTTFTLPTDLDTLKEKIKELFPEKKYEIKKVTRVPGNPGLTTITVKVPKDSAGG [r13_832_JUSTAS] | 1.68 ± 0.11 | 1.89 ± 0.064 | 1.28 ± 0.039
SAGGSAGGSAGMVVKVKEHPITITKLPDGSWRLTHPASGKVILLPGVDEATAKAIAEELTSAGGSAGGSAGG [r11_1085_JUSTAS] | 1.58 ± 0.054 | 1.76 ± 0.027 | 1.26 ± 0.015
SAGGSAGGSASAEEEARRLAPEGKLVYKITKGNETTIVALTPEEAEALKKKNPDVEIEPILLSAGGSAGGSA [r18_198_JUSTAS] | 2.81 ± 0.087 | 3.176 ± 0.021 | 1.37 ± 0.035
